From patent publication US20250009878A1

Target: WT MCT1/BSG-2 complex (mouse) (mouse) (UniProt P53986)
Experiment: cell-based or functional assay

UniProt P53986, sequence (P53986 whole entry, chain 1 of 2): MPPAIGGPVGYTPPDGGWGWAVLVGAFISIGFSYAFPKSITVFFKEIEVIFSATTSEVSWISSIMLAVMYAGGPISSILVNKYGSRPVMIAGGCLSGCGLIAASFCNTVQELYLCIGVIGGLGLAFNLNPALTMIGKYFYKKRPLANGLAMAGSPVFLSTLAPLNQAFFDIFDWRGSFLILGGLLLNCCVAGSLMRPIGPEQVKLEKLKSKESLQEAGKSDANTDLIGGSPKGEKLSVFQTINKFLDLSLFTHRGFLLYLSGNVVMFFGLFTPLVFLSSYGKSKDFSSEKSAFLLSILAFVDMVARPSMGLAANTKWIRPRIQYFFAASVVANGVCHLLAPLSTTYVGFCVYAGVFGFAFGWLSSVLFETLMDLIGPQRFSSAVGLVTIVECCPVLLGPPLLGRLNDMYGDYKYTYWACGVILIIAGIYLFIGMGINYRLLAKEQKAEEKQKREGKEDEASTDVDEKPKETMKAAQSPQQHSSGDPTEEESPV
UniProt P53986, sequence (P18572 other isoform, or with tags, fused parts or gaps, chain 2 of 2, further chain): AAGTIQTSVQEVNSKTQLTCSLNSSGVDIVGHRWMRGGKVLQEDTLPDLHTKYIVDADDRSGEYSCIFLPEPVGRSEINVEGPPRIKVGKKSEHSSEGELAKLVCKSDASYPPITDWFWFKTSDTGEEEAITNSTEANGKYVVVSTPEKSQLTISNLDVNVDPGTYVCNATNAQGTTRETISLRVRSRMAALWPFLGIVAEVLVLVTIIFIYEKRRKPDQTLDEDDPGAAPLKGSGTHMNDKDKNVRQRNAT

decrease in transport activity (H+ influx, HPTS proteoliposome flux assay): 75%
B1: WZHAb10 (antibody, human IgG1, kappa, V domains shown)
VH: QVQLVQSGAEVKKPGASVKVSCKASGYTFTNYWIHWVRQAPGQGLEWMGMIHPNSGSINYNEKFKTRVTMTRDTSTSTVYMELSSLRSEDTAVYYCARVGSGSLDYWGQGTLVTVSS
VL: EIVLTQSPATLSLSPGERATLSCRASQSISDYLHWYQQKPGQAPRLLIKYVSQSISGIPARFSGSGSGTYFTLTISSLEPEDVAVYYCQNGEEAPYTFGQGTKLEIKR
